Results published in patent US12692303.

What was measured:
[1] = molecular target: Human interleukin 23 (hIL-23) (human) (UniProt Q9NPF7); test: cell-based or functional assay
[2] = molecular target: Human interleukin 23 (hIL-23) (human) (UniProt Q9NPF7); test: SPR, Biacore T200, antibody captured on Protein A chip, IL-23 in flow, 25 °C, 1:1 model
Natural IL-23 (human) = Natural IL-23 (human) (UniProt Q9NPF7); test: binding ELISA, antibody coated at 1 µg/ml, IL-23 titrated, anti-His detection
Sequence of Natural IL-23 (human) (Q9NPF7 20-189 limits assumed, chain 1 of 2): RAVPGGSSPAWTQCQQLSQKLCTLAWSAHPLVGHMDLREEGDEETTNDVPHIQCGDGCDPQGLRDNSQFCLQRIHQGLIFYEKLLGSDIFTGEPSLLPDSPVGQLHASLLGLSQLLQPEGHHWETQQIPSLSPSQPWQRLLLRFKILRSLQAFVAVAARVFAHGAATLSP
Sequence of Natural IL-23 (human) (chain, as listed by the source limits assumed, chain 2 of 2): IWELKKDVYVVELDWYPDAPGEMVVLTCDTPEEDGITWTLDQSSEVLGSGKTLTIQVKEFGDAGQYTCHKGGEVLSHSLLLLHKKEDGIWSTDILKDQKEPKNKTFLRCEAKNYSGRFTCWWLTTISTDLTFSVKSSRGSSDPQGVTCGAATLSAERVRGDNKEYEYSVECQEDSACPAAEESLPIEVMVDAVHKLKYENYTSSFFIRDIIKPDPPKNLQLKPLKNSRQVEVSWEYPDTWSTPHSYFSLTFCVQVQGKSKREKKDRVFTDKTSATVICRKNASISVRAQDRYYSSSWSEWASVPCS

Sequence of Human interleukin 23 (hIL-23) (human) (Q9NPF7 20-189 limits assumed, chain 1 of 2): as the sequence (Q9NPF7 20-189 limits assumed, chain 1 of 2) above
Sequence of Human interleukin 23 (hIL-23) (human) (chain, as listed by the source limits assumed, chain 2 of 2): as the sequence (chain, as listed by the source limits assumed, chain 2 of 2) above

- IC50, inhibition of phosphorylation of STAT3 in HEK Blue IL-23 cells induced by IL-23 [1]: 3.51 ng/mL
- IC50, inhibition of release of IFN-γ from human NK cells induced by IL-23 [1]: 11.1 ng/mL
- IC50, inhibition of release of IL-17A from mouse spleen cells induced by IL-23 [1]: 8.43 ng/mL
- Kd [2]: 0.052 nM
- koff [2]: 3.7e-05 s⁻¹
- kon [2]: 706000 M⁻¹ s⁻¹
- EC50 (Natural IL-23 (human)): 1.8 ng/mL
B1: Risankizumab (antibody, INN chains, looked up, V domains shown)
VH: QVQLVQSGAEVKKPGSSVKVSCKASGYTFTDQTIHWMRQAPGQGLEWIGYIYPRDDSPKYNENFKGKVTITADKSTSTAYMELSSLRSEDTAVYYCAIPDRSGYAWFIYWGQGTLVTVSS
VL: DIQMTQSPSSLSASVGDRVTITCKASRDVAIAVAWYQQKPGKVPKLLIYWASTRHTGVPSRFSGSGSRTDFTLTISSLQPEDVADYFCHQYSSYPFTFGSGTKLEIKR
